From US20100203559A1 (published 2010)
Residue numbers refer to the chain shown, from its start.

B1: α-SNAP-25 monoclonal antibody 2E2A6 (antibody, V domains shown)
VH: QVQLQQSDAELVKPGASVKISCRASGYTFTDHSIHWVKQQPGQGLEWIGYIFPGNGNIEYNDKFKGKATLTADKSSGTAYMQLNSLTSEDSAVYFCKRMGYWGQGTSVTVSS
VL: DVLMTQTPLTLSVTIGQPASISCKSSQSLLYTNGKTYLTWLFQRPGQSPKRLIYLVSELDSGVPDRFSGSGSGTDFTLEITRVEAEDLGVYYCLQSAHFPFTFGSGTKLEIKR
B2: α-SNAP-25 monoclonal antibody 3C1A5 (antibody, V domains shown)
VH: QVKLQESGAELVKPGASVKISCKASGYTFTDHSIHWVKQKPGQGLEWIGYLFPGNGNFEYNEKFKGKATLTADKSSSTVYMYLNSLTSEDSAVYFCKRMGYWGQGTTVTVSS
VL: B1 VL with L3V, Y31N, F42I, K50Q, E58K, E79K, T81S, A97S
B3: α-SNAP-25 monoclonal antibody 1D3B8 (antibody, V domains shown)
VH: QVKLQESGAELVKPGASVKISCKASGYIFTDHALHWVRQKPEQGLEWIGYIFPGNGNIEYNEKFKGKATLTADKSSSTAYMQLNSLTSGDSAMYFCKKMDYWGQGTTVTVSS
VL: DVLMTQTPLSLPVSLGDQASISCRSSQSIVHSNGNTYLEWYLQKPGQSPKLLIYKVSNRFSGVPDRFSGSGSGTDFTLKISRVEAEDLGVYYCFQGSHVPPTFGAGTKLELKR

target: T1, SNAP-25206 uncleaved substrate (PC12 cells) (rat (PC12 cells), UniProt P60881 1-206); experiment: cell-based activity assay (Western blot, PC12 cells), ascites 1:100
T1 construct: also called uncleaved SNAP-25206 substrate; uncleaved SNAP-25
T1 sequence (P60881 whole entry): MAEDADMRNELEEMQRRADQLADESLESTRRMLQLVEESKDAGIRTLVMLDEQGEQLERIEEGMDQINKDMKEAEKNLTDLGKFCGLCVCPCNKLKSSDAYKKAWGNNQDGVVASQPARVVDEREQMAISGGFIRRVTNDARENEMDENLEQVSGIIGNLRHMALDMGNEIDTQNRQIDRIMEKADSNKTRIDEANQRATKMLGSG

Does B1 bind?
Result: no binding

Does B2 bind?
Result: no binding

Does B3 bind?
Result: no binding
